What all share (type): biochemical
Series [1] in a line: Specific activity of purified endoglucanases. Conditions: purified to homogeneity; pH 5.6 and 50° C.; CMC as substrate. The protocol: FIG. 2 represents Table 2 which contains the data obtained by purification of endoglucanases of seven clones (pBKRR.1, 9, 11, 13, 14, 16 and 22) with respect to the specific activity. […] They were purified to homogeneity and their specific activity was estimated at pH 5.6 and 50° C., using CMC as substrate.
The endoglucanases were recovered from 1-liter shaked flask fermentations, in Luria-Bertany broth plus 50 μg of Kanamycin per ml. One gram of fermentation broth was mixed with 10 ml of standard buffer in a 50-ml Falcon tube. The solution was vortexed and then incubated with DNase I grade II, for 30-45 min, and then sonicated for 4 min total time. A sample of the soluble fraction was separated from insoluble debris by centrifugation (10,000×g, 30 min, 4° C.) and proteins were precipitated by addition of 80% chilled acetone (−20° C.). Proteins were resuspended in standard buffer and stored at −20° C. at a concentration of 5 mg/ml until use. The amount of protein expression was examined using SDS-PAGE with 10-12% acrylamide. […] The gel region containing the active cellulase, detected in a parallel track by activity staining (using Ostazin brillian-blue carboxymethyl cellulose) was excised, suspended in two volumes of standard fuffer and homogenized in a glass tissue homogenizer. […]
The standard cellulase activity was determined in a continuous spectrophotometric assay by measuring the release of reducing sugars from the 4% (wt/vol carboxymethyl cellulose (CMC) in 0.5-ml reaction mixtures containing 50 mM sodium acetate buffer, pH 5.6, at 40° C., using the dinitrosalycilic acid (DNS) method (Bernfeld, P. (1955) Amilases and b. In: Colowick S P, Kaplan N O (eds). Methods in Enzymology, Academic Press, New York pp. 133-155). The reaction was performed in 0.5 ml scale containing 20 mg substrate and 5 mg lyophilised cells or 0.1 mg purified enzyme. Reactions were allow to proceed for a time period of 5-30 min after which the samples were centrifuge (10,000×g, 3 min). […] Finally, each well was diluted with 150 μl water and the absorbance at 550 nm was measured. […]

Series [2] in a line: Thermal activity and thermostability. Conditions: at the pH optima; CMC. On the procedure:
FIG. 3 represents Table 3 giving an overview over the biochemical properties of the cellulases according to the invention. Reaction was performed at the optimum pH and temperature for each done using CMC as substrate. […] The values for clones pBKRR.1, 9, 11, 13, 14, 16 and 22 are depicted. For each clone the following data are given: • maximum pH at which the remaining activity after 24 h incubation at the indicate pH is >90% (column “Stable at pH”). […] Activity was measured after 2 h incubation and compared with a control reaction in buffer lacking dimethylsulfoxide, • detergent resistance given by the remaining activity in the corresponding buffer (optimum pH) containing the indicate detergent at a concentration for 0 to 3%. […]
FIG. 4 a-c represent the results of the determination of pH and temperature optima showing graphically views of the pH-dependence activity and temperature-dependence activity of the polypeptides according to the invention. The pH optima of rumial endoglucanases were measured under conditions described in Example 5: 4% CMC, 0.5 mL of 50 mM buffer at the corresponding pH and 0.1 mg E. coli cell lysates, for 5-30 min, at 40° C. Effect of temperature on endoglucanase activity was measured in 50 mM sodium acetate buffer pH 5.6. […]

The nature of series [3]: Cation dependence. Conditions: 10 to 100 mM. The protocol: FIG. 3 represents Table 3 giving an overview over the biochemical properties of the cellulases according to the invention. Reaction was performed at the optimum pH and temperature for each done using CMC as substrate. […] The values for clones pBKRR.1, 9, 11, 13, 14, 16 and 22 are depicted. For each clone the following data are given: • maximum pH at which the remaining activity after 24 h incubation at the indicate pH is >90% (column “Stable at pH”). […] Activity was measured after 2 h incubation and compared with a control reaction in buffer lacking dimethylsulfoxide, • detergent resistance given by the remaining activity in the corresponding buffer (optimum pH) containing the indicate detergent at a concentration for 0 to 3%. […] The effect of mono- (Na^+, K^+, NH4^+, and divalent cations (Ca^2+, Mn^2+, Mg^2+, Sr^2+, Fe^2+, Cu^2+, Ni^2+, Co^2+, Zn^2+) was first examined by treating the enzyme with chelating agents (EDTA and EGTA) to remove any endogenous divalent cations, followed by adding cations to the reaction mixture.
[…] Inhibitors such as N-ethylmalemide, iodoacetate and p-chloromercuribenzoate at concentration from 1-5 mM were incubated in the presence of the enzyme for 30 min (30° C.) prior to the addition of the substrate (CMC). The effects of detergents on the endoglucanase activity was analysed by adding of 1-3% (wt/vol) detergent to the enzyme solution. In all cases, the enzyme activity was assayed in triplicate using the standard cellulose assay described above and the residual activity was expressed as percent of the control value (without addition of chemicals).

B1: pBKRR.22: rumen endo-beta-1,4-glucanase, sequences FIG. 11/19 (protein)
chain: MLLASFSLFSCGGSDGDDSTPTPSVSLQLVSQSIAEGAQVDAASTTVLTLNYNNPVRVTGNGVTLNGIAVKAKVSGNTSVEIPLTLVEGTVYTLKVAWGAIVAAADGKVVAPEFTLNFTTKGNQQPPIDENSPIAKKMGWGWNLGNHFDTSSGADGVRPQWGYWDNAKPTQVLYNNLRNAGTSTVRIGVTWGNYQNTSNWDIDANYIAEVRQNVEWAEAAGLNVILNMHHDEYWLDIKGAANNSSTNTNIKNRIEKTWKQIAEAFKDKGEFLIFESFNEIQDGGWGWGANRTDGGKQYKTLNEWNQLVVNTIRATGGNNATRWIGIPSYAANPSLALETGFVLPTDAANRLMVSVHFYDPSNFTLSPYVSDDSSEYKSGGYSEWGHTAAKGKADTGSNEDHVVAIFKKLHDKFVAKNIPVYIGEYGCVMHKNTRSNYFRNYYLEYVCRAAHEYGMPLCIWDNNQTGGGNEHHGYFNHTDGQYLNAMESLVKTMIKAATSDDASYTLESVYNKAPK
modifications: Description of sequence sequence derived from genomic DNA library from rumen ecosystem, particularly amino acid sequence of clones pBKRR 22, 6, 8 and 23;(see Figure 19)
Molecule B1 yielded a specific activity in series [1] of 68.30 µmol/min/mg.

B2: pBKRR.14: rumen endoglucanase, sequences FIG. 16/24; also capable of hydrolyzing xylan (protein)
chain: MINVLQHHPEVELSVDKTSVSFNRSGGEETFTVTSSTQPHVSADVSWVVVETGKIDKDHHTEVRVLAGANRKEASAGTLTVSCSDKKVSVSVKQEAFVAPSVASTTAVTPQMVFDAMGPGWNMGNHMDAISNGVSGETVWGNPKCTQATMDGVKAAGYKAVRICTTWEGHIGAAPAYALEQKWLDRVAEIVGYAEKAGLVAIVNTHHDESYWQDISKCYNNAANHEKVKDEVFSVWTQIAEKFKDKGEWLVFESFNEIQDGGWGWSDAFRKNPDAQYKVLNEWNQTFVDAVRSTGGQNATRWLGIPGYACNPGFTIAGLVLPKDYTTANRLMVAVHDYDPYDYTLKDPLIRQWGHTADADKRPSGDNEKAVVDVFNNLKAAYLDKGIPVYLGEMGCSRHTAADFPYQKYYMEYFCKAAADRLLPMYLWDNGAKGVGSERHAYIDHGTGQFVDEDARTLVGLMVKAVTTKDASYTLESVYNSAP
modifications: Description of sequence sequence derived from genomic DNA library from rumen ecosystem, particularly amino acid sequence of clones pBKRR 14 and 20-1; RR14=RR20-1;(see Figure 24)
notes: also capable of hydrolyzing xylan
B2 had a specific activity in series [1] of 34.60 µmol/min/mg. In addition, in series [2], the “temperature of improved activity and thermostability” value amounted to 70 °C. The “stimulatory effect of Mg^2+” value in series [3] (chloride salt) is 127%. In series [3] (chloride salts, after EDTA and EGTA treatment), the “influence of mono- and divalent cations on activity” value is “not influenced”.

For the origin of these results see patent publication US20080261267A1, “Cellulases from Rumen” (priority 2004, published 2008).
